Source: article PMC12002230, “The cryo-EM structure and physical basis for anesthetic inhibition of the THIK1 K2P channel” (Proceedings of the National Academy of Sciences of the …, 2025)

Biological target: the molecule itself
Assay: cryo-EM structure; purified THIK1EM at 2.4 mg/mL in 150 mM KCl, 20 mM Tris pH 8, 0.01% GDN; 300 kV Titan Krios, RELION; 3.2 Å

B1: C-terminally truncated human THIK1 (KCNK13), residues 1 to 309 (domain or fragment, UniProt Q9HB14 1-309, looked up)
chain: MAGRGFSWGPGHLNEDNARFLLLAALIVLYLLGGAAVFSALELAHERQAKQRWEERLANFSRGHNLSRDELRGFLRHYEEATRAGIRVDNVRPRWDFTGAFYFVGTVVSTIGFGMTTPATVGGKIFLIFYGLVGCSSTILFFNLFLERLITIIAYIMKSCHQRQLRRRGALPQESLKDAGQCEVDSLAGWKPSVYYVMLILCTASILISCCASAMYTPIEGWSYFDSLYFCFVAFSTIGFGDLVSSQNAHYESQGLYRFANFVFILMGVCCIYSLFNVISILIKQSLNWILRKMDSGCCPQCQRGLLRS
modifications: N-glycosylation at N59 and N65
notes: C-terminally truncated; The N-terminal GFP-His10 tags were removed by PreScission (3C) protease at LEVLFQ/GP; residues of the cleavage site probably remain at the N-terminus (surmised); Homodimeric K2P channel in GDN detergent; also called THIK1EM; hTHIK1EM; source: HEK293 GnTi- cells, baculovirus (BacMam) infection, purified (GFP-nanobody resin, 3C cleavage, Superdex 200 in GDN); not shown: GFP, …
- stoichiometry N: 2
